Data published in US20140199314A1.

Biological target: BMP-2 (UniProt P12643)
Experiment: cell-based or functional assay

Sequence of UniProt P12643 (P12643 283-396 limits assumed): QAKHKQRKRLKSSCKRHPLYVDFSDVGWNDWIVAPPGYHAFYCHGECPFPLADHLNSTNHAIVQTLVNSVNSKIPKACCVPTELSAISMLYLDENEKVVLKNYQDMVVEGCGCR

- inhibition of BMP-2 induction of hepcidin promoter activity (luciferase) by 20% pooled serum from DRAGON.Fc treated mice; serum from mock treated control mice inhibited by about 30%: > 70%
Substance: DRAGON.Fc (soluble DRAGON fused to the Fc portion of human immunoglobulin) (from UniProt Q6NW40 46-409) (Fc fusion)
